Data: US20110171220A1 (ISIS INNOVATION, published 2011)

Columns and labels:
[1] = biological target: T1, human PD-1 extracellular region / murine CD28 chimera, mutant L16R, on HEK-293T cells (human; mouse, UniProt Q15116 25-170; P31041 151-218, L16R); test: flow cytometry on transfected HEK-293T cells
T1 construct: extracellular domain;domain: transmembrane and intracellular regions; Single-residue 'drastic' mutant of m4
Procedure: (§1) Constructs encoding the human extracellular region of PD-1 with the transmembrane and intracellular regions of murine CD28 were cloned into the bi-cistronic mammalian expression vector pGFP2-n2 from BioSignal Packard Ltd, which also encodes GFP. Mutant constructs varying by one amino acid were prepared using the “drastic” mutagenesis approach (Davis et al. Proc Natl Acad Sci USA. 95, 5490-4 (1998)). Plasmids (2 μg/well) were transfected into HEK-293T cells in 6 well plates using Genejuice transfection reagent (Novagen; 6 μl/well). Mock and no-transfection controls were included with each experiment. Cells were harvested at 18-24 hours and stained with anti-PD1 antibodies or isotype controls at 10 μg/ml in PBS-azide for 1 h at 4° C. Cells were washed with PBS-Azide, pelleted at 1500 rpm/5 min and primary antibodies were labelled with Alexa647-conjugated donkey anti-mouse IgG (5 μg/ml) in PBS-Azide for 30 min at 4° C. Cells were washed as above and resuspended in 200 μl PBS-Azide before being analysed at the flow cytometer. Propidium iodide (5 μg/ml) was added immediately prior to analysis to identify dead cells. GFP-positive (transfected) viable cells were gated and analysed for binding of anti-PD1 antibodies. Mutants were defined as ‘knock-out’ (reducing the percentage of cells bound by the anti-PD1 antibody) or ‘knock-down’ (reducing the intensity of antibody staining relative to other PD-1 antibodies).
(§2) Following transfection, cells analysed at the flow cytometer were 85-90% viable by propidium iodide exclusion. Transfection efficiencies ranged from 15-50% (GFP⁺). Isotype controls were negative on all transfectants. […] V18R partially eliminates Clone 19 binding.

[2] = biological target: T2, human PD-1 extracellular region / murine CD28 chimera, mutant V18R, on HEK-293T cells (human; mouse, UniProt Q15116 25-170; P31041 151-218, V18R); test: flow cytometry on transfected HEK-293T cells
T2 construct: extracellular domain;domain: transmembrane and intracellular regions; Single-residue 'drastic' mutant of m4
T2 sequence (Q15116 other isoform, or with tags, fused parts or gaps V18R | V18R V18R): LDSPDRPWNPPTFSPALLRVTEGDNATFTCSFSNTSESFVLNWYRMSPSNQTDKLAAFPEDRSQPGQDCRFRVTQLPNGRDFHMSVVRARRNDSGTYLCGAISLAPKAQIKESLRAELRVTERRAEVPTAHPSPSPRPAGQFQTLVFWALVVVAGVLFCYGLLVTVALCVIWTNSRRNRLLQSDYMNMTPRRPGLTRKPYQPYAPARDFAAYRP
Procedure: as §1, §2

[3] = biological target: T3, human PD-1 extracellular region / murine CD28 chimera, mutant R118D, on HEK-293T cells (human; mouse, UniProt Q15116 25-170; P31041 151-218, R118D); test: flow cytometry on transfected HEK-293T cells
T3 construct: extracellular domain;domain: transmembrane and intracellular regions; Single-residue 'drastic' mutant of m4
T3 sequence (Q15116 other isoform, or with tags, fused parts or gaps R118D | R118D R118D): as the sequence (Q15116 other isoform, or with tags, fused parts or gaps V18R | V18R V18R) above, with R19V, R119D counted along it
Procedure: as §1, §2

[4] = biological target: T4, Monomeric soluble human PD-1 (human, UniProt Q15116 25-170, limits assumed); test: SPR, antibody captured by rabbit anti-mouse Fc, soluble PD-1 injected
T4 construct: also called soluble PD-1
T4 sequence (Q15116 25-170 limits assumed): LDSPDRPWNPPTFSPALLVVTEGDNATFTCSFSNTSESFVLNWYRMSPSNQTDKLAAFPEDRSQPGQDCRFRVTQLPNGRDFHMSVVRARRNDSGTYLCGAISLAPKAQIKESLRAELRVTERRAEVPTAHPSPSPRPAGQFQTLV
Procedure: FIG. 12: Dissociation rates for Clone 2, 10 and 19 antibodies determined by surface plasmon resonance-based analysis. The three antibodies and a negative control (OX-7) were bound indirectly to the biosensor surface, i.e. via a covalently coupled rabbit anti-mouse Fc antibody. Monomeric soluble human PD-1 was then injected to saturating levels over the immobilized antibodies in the buffer 10 mM Hepes, 150 mM NaCl pH 7.4. Following injection of the soluble PD-1, the buffer only was injected, allowing dissociation of the bound soluble PD-1 from each of the antibodies simultaneously. Dissociation rates were fitted using Origin v.5.0 software (MicroCal Software Inc, Northampton, Mass.) after subtraction of the dissociation rate for OX-7 dissociating from the anti-mouse Fc antibody.

T1 sequence (Q15116 other isoform, or with tags, fused parts or gaps L16R | L16R L16R): as the sequence (Q15116 other isoform, or with tags, fused parts or gaps V18R | V18R V18R) above, with L17R, R19V counted along it

| binding result [1] | binding result [2] | binding result [3] | binding result [4] | Binder |
| --- | --- | --- | --- | --- |
| no binding (tested: 10 µg/ml) | binds | no binding (tested: 10 µg/ml) |  | Clone 19 anti-PD-1 antibody (antibody, IgG1, V domains shown, the printed VH ends at ...GTLVTV; Constant regions are named only in an embodiment (GenBank D78344, V00807); also called monoclonal antibody produced by clone 19; hybridoma 08090901) VH: QVQLQQSGAELVKPGASVKMSCKAFGYTFTTYPIEWMKQNHGKSLEWIGNFHPYNDDTKYNEKFKGKAKLTVEKSSTTVYLELSRLTSDDSAVYYCARENYGSHGGFVYWGQGTLVTV VL: ENVLTQSPAIMSASPGEKVTMTCRASSSVISSYLHWYQQKSGASPKLWIYSTSNLASGVPDRFSGSGSGTSYSLTISSVEAEDAATYYCQQYNGYPLTFGAGTKLEIK |
| binds | binds | binds |  | Clone 10 anti-PD-1 antibody (antibody, IgG1, V domains shown, the printed VH ends at ...GTTVTV; also called hybridoma 08090902) VH: DVQLQESGPGLVKPSQSLSLTCTVTGYSITSDYAWNWIRQFPGNKLEWMGYINYSGSTSYNPSLKSRISITRDTSKNQFFLQLNSVTTEDTATYYCARWIGSSAWYFDVWGAGTTVTV VL: DVLMTQTPLSLPVSLGDQASISCRSGQNIVHSNGNTYLEWYLQKPGQSPKLLIYKVSNRFFGVPDRISGSGSGTDFTLKISRVEAEDLGVYFCFQGSHVPFTFGSGTKLEIK |
|  |  |  | binds | Clone 2 anti-PD-1 antibody (antibody, V domains shown, The printed VH ends at ...GTSVT; also called hybridoma 08090903) VH: QVQLQQPGAELVKPGASVKLSCKASGYTFTTYYLYWVRQRPGQGLEWIGGINPSNGGTNFNEKFKSKATLTVDKSSSTAYMQLNSLTSEDSAVYYCTRRDYRYDRGFDYWGQGTSVTV VL: DIVLTQSPASLAVSLGQRATISCRASKSVSTSGFNYIHWYQQKPGQPPKLLIYLASNLESGVPARFSGSGSGTDFTLNIHPVEDEDAATYYCQHSRELPLTFGAGTKLEIK |
